# Reference: patent US7223734B2, “Plasma protein-binding ligands” (The American National Red Cross, priority 2002, dated 2007)
# Non-standard residues stand in square brackets, D forms with d. No end group written: not given here. 2Nal = N[C@@H](Cc1ccc2ccccc2c1)C(=O)O
# Tests used:
# vWF/fVIII [1] = molecular target: T1, vWF/fVIII (Homo sapiens, UniProt P04275); assay: Removal of vWF/fVIII from plasma on D-EADna2′ED resin, fVIII coagulation assay (Example 11); type: binding; design: from tissue; host or cells: pooled human plasma
# Protocol: (§1) Pooled human plasma (20 ml) was added to 0.8 ml of resin and incubated for 30 minutes while gently rotating. Resin was settled under gravity or by short gentle centrifugation, and the supernatant was collected (the equivalent of “flow-through” of the previous examples). The resin was then packed into an Omni column and the chromatography was completed using the ÄKTAExplorer system. The flow rate was kept constant at 0.4 ml/min (LV=31 cm/h; retention time=2 minutes). After washing of the resin with EQ buffer to baseline, the bound proteins were eluted from the resin with 10 column volumes (CV) of 0.5 M NaCl, followed by 10 CVs of 0.75 M NaCl, 1.0 M NaCl/1% Tween (all in 0.02 M sodium citrate, pH 7.0) and 2.0 M guanidine. Twenty-five microliters of 0.4 M calcium chloride was added to each fraction collected, and the fractions were evaluated by OD reading and Western Blots for vWF and fVIII antigen. The fVIII activity of pooled fractions was determined by chromogenic and coagulation assays.
# vWF/fVIII [2] = molecular target: T1, vWF/fVIII; assay: Primary screening of 6-mer library for vWF/fVIII ligands; type: binding; design: from tissue; host or cells: human plasma (first round also purified vWF of unstated origin); conditions: bead screening, immunodetection
# Protocol: The ToyoPearl 650-M amino resin displaying the library of D- or L-hexamers ([…]) was incubated either with plasma or purified vWF in TBS buffer or EQ buffer. The captured proteins were subsequently eluted stepwise from the resin beads with sodium chloride (0.5 M, 1.0 M, 2.0 M) and guanidine (2–6 M). The target proteins were detected immunologically after transfer onto a PVDF membrane. One of three detection strategies was employed to detect target protein binding. A one-step immunodetection assay using a specific HRP-conjugated polyclonal sheep anti-human vWF antibody was performed. A differential-subtractive immuno-detection assay entailed detecting proteins transferred onto membranes with specific HRP-conjugated polyclonal sheep anti-human vWF antibody in 1:10,000 dilution (AHP062P; Serotec) followed by exposure to chemiluminescence substrate ECLPlus. Membranes were stripped and re-probed with rabbit anti-human albumin antibody (No. A0433, Lot No. 031K4897 from Sigma) followed by secondary alkaline phosphatase-labeled goat anti rabbit antibody (Tropix). Following film development, films were aligned and dots that appeared on films for vWF and on albumin films were deemed background signal. Dots positive for vWF but not for albumin were considered positive. A detection assay using radio-labeled antibody also was performed. Freshly I125-radiolabeled monoclonal anti-human vWF antibody, 101.104 (VWFAE; Enzyme Research) in dilution 1:250 in hSA-Hepes-0.14 M NaCl-Tween buffer was used for detection. After washing, membranes were exposed to Kodak films for 48 hrs at −80° C. Positive beads were picked and prepared for re-probing.
# All beads collected from several gels were pooled in the same tube, washed with water and incubated in 8 M Guanidine to remove remaining proteins before re-probing. After extensive washing with water and citrate buffer, the resin beads were blocked with 3% human albumin for 2 hours and incubated with human plasma. Resin beads were immobilized in agarose gels (6 cm×7 cm) and target protein was transferred to a PVDF membrane in 2 M NaCl for 20 hours. Membranes were blocked, incubated with 101.104 anti-vWF antibody, and detected with secondary goat/anti-mouse-HRP. In some experiments, sheep anti-human vWF antibody conjugated with HRP was used for detection. Positive beads were picked, washed, and the attached ligands were sequenced.
# For some re-probing experiments, resin beads linked to target proteins were visualized by adding specific antibody and color substrate to facilitate further alignment. Detection of a target protein bound to the resin beads by non-labeled monoclonal antibody 101.104 anti-vWF was used followed by goat/anti-mouse antibody conjugated with alkaline phophatase and FastRed prior to immobilizing beads in the agarose gel. Additional substrate CDPStar was applied directly onto a gel with immobilized beads, and the gel was exposed to a Kodak film. Dark spots on the film were correlated with red spots on the gel to ensure appropriate alignment. The proteins from resin beads immobilized in the gel were transferred onto a membrane and developed again with radiolabeled monoclonal antibody against vWF. The films and gel were aligned, and resin beads that appeared positive in all stages were picked, washed, and attached ligands sequenced.
# vWF/fVIII [3] = molecular target: T1, vWF/fVIII; assay: Removal of vWF/fVIII from plasma on D-EADna2′ED resin, fVIII chromogenic assay (Example 11); type: binding; design: from tissue; host or cells: pooled human plasma; conditions: for FVIII / Total FVIII: Chromogenic Assay
# Protocol: as §1
# API = molecular target: T2, API (Homo sapiens, UniProt P01009); assay: Primary screening of 6-mer library for API-binding ligands; conditions: bead screening, immunodetection / radiolabel
# T2 construct: from tissue; host or cells: human plasma (whole, fibrinogen-depleted or F1-Apo-depleted)
# T2 sequence (P01009 25-418): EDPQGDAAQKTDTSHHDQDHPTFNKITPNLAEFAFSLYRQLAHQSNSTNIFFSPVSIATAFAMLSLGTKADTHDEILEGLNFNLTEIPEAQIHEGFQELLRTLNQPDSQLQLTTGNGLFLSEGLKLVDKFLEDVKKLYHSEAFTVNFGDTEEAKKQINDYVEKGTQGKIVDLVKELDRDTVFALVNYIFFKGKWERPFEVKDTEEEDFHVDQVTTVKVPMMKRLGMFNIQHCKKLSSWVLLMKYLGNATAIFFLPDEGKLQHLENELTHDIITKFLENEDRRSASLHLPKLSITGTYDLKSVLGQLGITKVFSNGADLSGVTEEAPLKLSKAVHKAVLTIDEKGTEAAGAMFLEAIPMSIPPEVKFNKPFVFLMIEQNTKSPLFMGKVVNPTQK
# Protocol: Peptide libraries attached to Toyopearl-AF Amino 650M resin or Tentagel resin were evaluated with 14C-labeled fibrinogen and API. All steps were performed at room temperature. Specifically, 20 mg of Toyopearl resin beads or 40 mg of Tentagel resin beads were suspended in 20% methanol for a minimum of 2 hours in 15 ml conical polypropylene tubes (Corning). After rinsing with distilled water, the resin beads were equilibrated in 0.15 M NaCl, 0.020 M sodium citrate, pH 7.3. The resin beads were then blocked for 2 hours with 1% casein (Sigma) in 0.15M NaCl, 0.020M sodium citrate, pH 7.3. Following blocking, the resin beads were centrifuged and the supernatant removed. A solution containing 1 mM of C^14-labeled fibrinogen or 30 μM of C^14-labeled API was applied to the resin beads in the blocking solution in the presence of 0.1% Tween-20 (Sigma). The materials were incubated for 2 hours. The resin beads were washed with 0.15 M NaCl, 0.020 M sodium citrate, 0.05% Tween-20, pH 7.3, in a batch method (fibrinogen ligands) or in disposable BioRad 10 ml columns (API ligands) until radiation counts reached the background level of less than 40 DPM. The resin beads were divided into separate tubes to obtain approximately 5–10 mg of resin beads per sheet. This was accomplished by mixing each aliquot of resin beads with 20–22 ml of 1% low melting agarose solution (Sigma) at less than 40° C., and rapidly pouring the mixture onto GelBond® film sheets (BMA Cat. No. 53749, 16×18 cm; Cat. No. 53759, 12.5×24.5 cm). Spreading of the resin beads to the edge of the gel sheets was prevented by creating frames (about 23 cm×about 10 cm or about 15 cm×about 15 cm) with several layers of masking tape. About 20–22 ml of resin bead-agarose mixture was plated on each GelBond sheet. Special care was taken to spread the beads in an even monolayer to facilitate identification and isolation of individual “hot” beads. The agarose gel was then air-dried overnight and placed, bead side down, on X-ray film (Kodak Biomax MR). The agarose and autoradiography film were exposed for 4–14 days followed by a second exposure of 7 days in an about 20 cm×about 25 cm stainless steel cassette. Afterwards, the films were taped together and marked with several staple holes to ensure proper alignment of beads in agarose to film. After the films were developed, the positive beads that appeared on both films were identified under the microscope and picked by aligning the developed film(s) and agarose gel via the staple holes. Beads to be sequenced were carefully picked by cutting a square trench around the bead with a scalpel, and hydrating this area with distilled water. […]
# paraoxonase = conditions: resin bead suspension
# Protocol: Paraoxonase binding to a WWLHAN (SEQ ID NO: 56)-displaying resin was evaluated according to the following protocol. Rabbit serum diluted 1/10 times with PBS ([…]) was incubated in a rotating Eppendorf tube with 50 μl of D-WWLHAN (SEQ ID NO: 56)-displaying resin suspension containing approximately […] of resin. The resin was previously soaked in 20% methanol overnight and washed 3 times with PBS to remove the methanol traces and resuspended in paraoxonase assay buffer (20 mM Tris pH 8.0, 150 mM NaCl, and 2 mM CaCl2). After 1 hour incubation at 37° C., resin beads were precipitated by centrifugation at 8000 g for 1 min in an Eppendorf microcentrifuge. Supernatants were transferred into separate Eppendorf tubes and resin bead pellets were resuspended in equal volumes of paraoxonase assay buffer. Paraoxonase activity of resin bead suspensions and supernatant solutions was measured. In particular, 100 μl of paraoxonase assay buffer containing 100 μm of DEPFMU (a fluorogenic substrate for paraoxonase detection) was mixed with […] of supernatant or 10 μl of resin bead suspension, or the original serum solution in a standard microtiter plate well. After thorough mixing, the plate solution was incubated for 20 minutes at 37° C. Hydrolysis of DEPFMU was quantified by measuring the fluorescence level at […] using a commercial fluorometer. The level of fluorescence correlates with the level of 6,8-difluoro-4-methylumbelliferyl released from DEPFMU as a result of paraoxonase-mediated hydrolysis. The actual amount of 6,8-difluoro-4-methylumbelliferyl released in the assay can be calibrated with a known amount of 6,8-difluoro-4-methylumbelliferyl.
# Several different D-WWLHIN (SEQ ID NO: 33) analogs were screened for the ability to bind to paraoxonase under the conditions described in Example 7. For this experiment, the following resins were tested: WWLHAN (SEQ ID NO: 56), AWLHIN (SEQ ID NO: 59), WALHIN (SEQ ID NO: 60), WWAHIN (SEQ ID NO: 61), WWLHIA (SEQ ID NO: 63), WYLHIN (SEQ ID NO: 35), WWLFIN (SEQ ID NO: 36), and na1′WLHIN (SEQ ID NO: 40).
substance,measurement,setting,value
"EADna2′ED (EAD[2Nal]ED; not fully specified; also: D-amino acids, positions not given here) [D-EADna2′ED]",FVIII,vWF/fVIII [1]; Elution 1 (0.75 M NaCl),0.39 IU/ml
same,Total FVIII,vWF/fVIII [1]; Elution 1 (0.75 M NaCl),3.9 IU
same,FVIII,vWF/fVIII [1]; Elution 2 (1.0 M NaCl),0 IU/ml
same,Total FVIII,vWF/fVIII [1]; Elution 2 (1.0 M NaCl),0 IU
same,Total FVIII,"vWF/fVIII [1]; Flow-Through, load 8.46 IU",1.6 IU
same,FVIII,"vWF/fVIII [1]; Flow-Through, plasma load 0.423 IU/ml",0.08 IU/ml
same,FVIII,vWF/fVIII [1]; Wash (0.5 M NaCl),0 IU/ml
same,Total FVIII,vWF/fVIII [1]; Wash (0.5 M NaCl),0 IU
same,identified as vWF/fVIII binding peptide from the 6-mer library,vWF/fVIII [2],vWF/fVIII binding
same,FVIII,vWF/fVIII [3]; Elution 1 (0.75 M NaCl),0.46 IU/ml
same,Total FVIII,vWF/fVIII [3]; Elution 1 (0.75 M NaCl),4.6 IU
same,FVIII,vWF/fVIII [3]; Elution 2 (1.0 M NaCl),0 IU/ml
same,Total FVIII,vWF/fVIII [3]; Elution 2 (1.0 M NaCl),0 IU
same,Total FVIII,"vWF/fVIII [3]; Flow-Through, load 21.4 IU",1.6 IU
same,FVIII,"vWF/fVIII [3]; Flow-Through, plasma load 20 ml, 1.07 IU/ml",0.08 IU/ml
same,FVIII,vWF/fVIII [3]; Wash (0.5 M NaCl),0.12 IU/ml
same,Total FVIII,vWF/fVIII [3]; Wash (0.5 M NaCl),1.2 IU
same,binding of vWF/fVIII by the resin,"vWF/fVIII [3]; plasma, fVIII activity and Western Blot for vWF",binds vWF/fVIII
EDSWDV,identified as vWF/fVIII binding peptide from the 6-mer library,vWF/fVIII [2],vWF/fVIII binding
HFDLHR,identified as API-binding peptide ligand from the 6-mer library,API,API-binding
LEDna2′EE (LED[2Nal]EE),identified as vWF/fVIII binding peptide from the 6-mer library,vWF/fVIII [2],vWF/fVIII binding
QWFPEK,identified as vWF/fVIII binding peptide from the 6-mer library,vWF/fVIII [2],vWF/fVIII binding
WALHIN [D-WALHIN],paraoxonase activity of bead fractions,paraoxonase,Significant activity
WWAHIN [D-WWAHIN],paraoxonase activity of bead fractions,paraoxonase,Significant activity
WWLFIN [D-WWLFIN],paraoxonase activity of bead fractions,paraoxonase,Significant activity
YHLGWL,identified as vWF/fVIII binding peptide from the 6-mer library,vWF/fVIII [2],vWF/fVIII binding
YLHYQT,identified as vWF/fVIII binding peptide from the 6-mer library,vWF/fVIII [2],vWF/fVIII binding
YVDEDD,identified as vWF/fVIII binding peptide from the 6-mer library,vWF/fVIII [2],vWF/fVIII binding
